In data set [1] the target is His6-tagged ComE T128E (phosphomimetic) T128E. The experiment in a line: Sandwich fluorescence-linked immunosorbent assay (FLISA). The following applies: no added salt stated (50 mM Bis-Tris-Propane-HCl, 1 mM MgCl2), 1 mM MgCl2, pH 7.8 or the same buffer at pH 6.0.
The target of data set [2] is His6-tagged ComE T128A (non-phosphorylatable) T128A. Described as above. The following applies: no added salt stated (50 mM Bis-Tris-Propane-HCl, 1 mM MgCl2), 1 mM MgCl2, pH 7.8 or the same buffer at pH 6.0.
The target of data set [3] is His6-tagged ComE (response regulator ComE, wild type). The data set is described as above. The following applies: no added salt stated (50 mM Bis-Tris-Propane-HCl, 1 mM MgCl2), 1 mM MgCl2, pH 7.8 or the same buffer at pH 6.0.
Data set [4] relates to ComE T128A (Hisx6) (Streptococcus pneumoniae R801). The experiment in a line: EMSA.
Data set [5] concerns ComE wt (Hisx6) (Streptococcus pneumoniae R801). The data set is described as follows: EMSA.
For data set [6], the system named is ComE D58E (Hisx6) (Streptococcus pneumoniae R801). The experiment in a line: EMSA.
Data set [7] relates to ComE T128E (Hisx6) (Streptococcus pneumoniae R801). The data set is described as follows: EMSA.
Setting [8] is: pH 6.0, 37°C (binding step, 1 h).
Setting [9] is: pH 7.8, 37°C (binding step, 1 h).

For “GST-StkP (serine/threonine protein kinase StkP, wild type)”, the K1/2 in data set [1] (setting [8]) turned out to be 3200 ng; in data set [1] (setting [9]) it was 900 ng; in data set [2] (setting [8]), 100 ng; in data set [2] (setting [9]), 110 ng; in data set [3] (setting [8]) it was 94 ng; in data set [3] (setting [9]), 330 ng.
Turning to GST-StkP K42M (kinase-inactive) K42M, the K1/2 in data set [2] (setting [8]) turned out to be 100 ng; in data set [2] (setting [9]), 80 ng; in data set [3] (setting [8]), 55 ng; in data set [3] (setting [9]), 140 ng.
For pcomC (comCDE promoter), the Kd in data set [4] turned out to be 375 nM; in data set [5], 371 nM; in data set [6], 21 nM; in data set [7] it was 74 nM.

Source of the values: publication PMC6010298.
